In assay [1] the target is Recombinant human erythropoietin (rhEPO) from the baculovirus/Sf9 expression system (Protein Sciences) (human).
Assay [2] concerns the target Cri-IgG1 monoclonal antibody (non-recombinant, isolated from a human myeloma) (human).
For assay [3], the target named is Fc Cri-IgG1 (Cri-IgG1 treated with a protease so that only the Fc portion remained) (human).
Assay [4] concerns the target Recombinant human erythropoietin (rhEPO) from the baculovirus/Sf9 expression system (Protein Sciences) (human). The source holds these as a separate data set.
Target sequence in this assay (chain, as listed by the source): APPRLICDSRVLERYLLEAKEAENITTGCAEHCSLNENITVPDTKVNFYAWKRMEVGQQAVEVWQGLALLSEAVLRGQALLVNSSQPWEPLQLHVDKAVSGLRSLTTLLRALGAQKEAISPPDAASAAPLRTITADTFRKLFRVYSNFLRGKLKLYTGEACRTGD
Assay [5] addresses Ribonuclease B (RNaseB) purified from bovine pancreas (Sigma) (bovine) (UniProt P61823).
The target of assay [6] is Cri-IgG1 monoclonal antibody (non-recombinant, isolated from a human myeloma) (human). The source holds these as a separate data set.
For assay [7], the target named is Fc Cri-IgG1 (Cri-IgG1 treated with a protease so that only the Fc portion remained) (human). The source holds these as a separate data set.
For assay [8], the target named is Recombinant human erythropoietin (rhEPO) from the baculovirus/Sf9 expression system (Protein Sciences) (human). This is another data set of the same source.
Assay [9] has the same target. The source holds these as a separate data set.
Target sequence in this assay (chain, as listed by the source): as above
The target of assay [10] is Cri-IgG1 monoclonal antibody (non-recombinant, isolated from a human myeloma) (human). This is another data set of the same source.
Assay [11] concerns the target Fc Cri-IgG1 (Cri-IgG1 treated with a protease so that only the Fc portion remained) (human). This is another data set of the same source.
The target of assay [12] is asialo-α1 Antitrypsin (PPL) (human).
asialo-α1 Antitrypsin (PPL) (human), sequence (chain, as listed by the source limits assumed): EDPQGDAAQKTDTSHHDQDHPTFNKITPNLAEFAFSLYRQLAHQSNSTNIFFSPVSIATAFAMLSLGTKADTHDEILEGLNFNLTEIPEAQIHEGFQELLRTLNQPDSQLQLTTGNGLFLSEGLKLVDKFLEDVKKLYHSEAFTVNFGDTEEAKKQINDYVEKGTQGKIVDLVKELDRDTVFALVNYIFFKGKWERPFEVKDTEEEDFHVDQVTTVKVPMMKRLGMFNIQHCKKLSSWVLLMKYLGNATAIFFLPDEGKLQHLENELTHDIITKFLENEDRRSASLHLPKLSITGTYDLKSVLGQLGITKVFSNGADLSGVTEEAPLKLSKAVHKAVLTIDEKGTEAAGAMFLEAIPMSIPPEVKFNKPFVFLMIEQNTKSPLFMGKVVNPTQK
The target of assay [13] is ATIII (Antithrombin III) from Genzyme Transgenics (human).
Assay [14] concerns the target Asialo-fetuin (Sigma).
Assay [15] addresses Ribonuclease B (RNaseB) purified from bovine pancreas (Sigma) (bovine) (UniProt P61823). This is another data set of the same source.
Assay [16] addresses Cri-IgG1 monoclonal antibody (non-recombinant, isolated from a human myeloma) (human). The source holds these as a separate data set.
Assay [17] concerns the target Fc Cri-IgG1 (Cri-IgG1 treated with a protease so that only the Fc portion remained) (human). This is another data set of the same source.
Assay [18] deals with Recombinant human erythropoietin (rhEPO) from the baculovirus/Sf9 expression system (Protein Sciences) (human). This is another data set of the same source.
Target sequence in this assay (chain, as listed by the source): as the sequence (chain, as listed by the source) above

Ribonuclease B (RNaseB) purified from bovine pancreas (Sigma) (bovine), sequence (P61823 27-150): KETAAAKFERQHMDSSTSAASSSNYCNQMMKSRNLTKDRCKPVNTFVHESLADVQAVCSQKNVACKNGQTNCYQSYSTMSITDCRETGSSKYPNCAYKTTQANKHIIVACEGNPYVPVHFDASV

In the case of GnT-V (enzyme), the conversion to the tri-antennary glycan (2AA HPLC) in [1] stood at 92%.
“GalT1 (β1,4 galactosyltransferase 1) (from UniProt P08037) (enzyme)”: the relative amount of the G2 glycoform by CE in [2] turned out to be 90%; in [3], 84%. The released glycans with terminal galactose (HPLC, MALDI) in assay [4] was 97%. This molecule also returned an addition of Gal; MALDI-TOF in assay [5] of 98%.
Regarding “β-N-acetylhexosaminidase (from Jack Bean, Seikagaku) (enzyme)”, the relative amount of the M3N2F glycoform by CE in assay [6] was determined as 91.4%; in assay [7] it was 100%.
As for “ST6Gal1 (α2,6-sialyltransferase) (enzyme)”, the incorporation of radiolabelled sialic acid (% of the radiolabel) in assay [8] was determined as 5.7.

B1: GnT-I (β1,2-mannosyl-UDP-N-acetylglucosaminosyltransferase I) (enzyme)
chain: TRPAPGRPPSVSALDGDPASLTREVIRLAQDAEVELERQRGLLQQIGDALSSQRGRVPTAAPPAQPRVPVTPAPAVIPILVIACDRSTVRRCLDKLLHYRPSAELFPIIVSQDCGHEETAQAIASYGSAVTHIRQPDLSSIAVPPDHRKFQGYYKIARHYRWALGQVFRQFRFPAAVVVEDDLEVAPDFFEYFRATYPLLKADPSLWCVSAWNDNGKEQMVDASRPELLYRTDFFPGLGWLLLAELWAELEPKWPKAFWDDWMRRPEQRQGRACIRPEISRTMTFGRKGVSHGQFFDQHLKFIKLNQQFVHFTQLDLSYLQREAYDRDFLARVYGAPQLQVEKVRTNDRKELGEVRVQYTGRDSFKAFAKALGVMDDLKSGVPRAGYRGIVTFQFRGRRVHLAPPLTWEGYDPSWN
In the case of B1, in assay [9], the conversion of the tri-mannosyl glycoform to 'tri-mannosyl core+2 GlcNAc' (2-AA HPLC) came to 100%.

B2: GnT-III (β1,4-mannosyl-UDP-N-acetylglucosaminosyltransferase III) (enzyme)
chain: HFFKTLSYVTFPRELASLSPNLISSFFWNNAPVTPQASPEPGDPDLLRTPLYSHSPLLQPLSPSKATEELHRVDFVLPEDTTEYFVRTKAGGVCFKPGTRMLEKPSPGRTEEKTEVSEGSSARGPARRPMRHVLSSRERLGSRGTRRKWVECVCLPGWHGPSCGVPTVVQYSNLPTKERLVPREVPRRVINAININHEFDLLDVRFHELGDVVDAFVVCDSNFTAYGEPRPLKFREMLTNGTFEYIRHKVLYVFLDHFPPGGRQDGWIADDYLRTFLTQDGVSRLRNLRPDDVFIIDDADEIPARDGVLFLKLYDGWTEPFAFHMRKSLYGFFWKQPGTLEVVSGCTMDMLQAVYGLDGIRLRRRQYYTMPNFRQYENRTGHILVQWSLGSPLHFAGWHCSWCFTPEGIYFKLVSAQNGDFPRWGDYEDKRDLNYIRSLIRTGGWFDGTQQEYPPADPSEHMYAPKYLLKNYDQFRYLLENPYREPKSTVEGGRQNQGSDGRSSAVRGKLDTAEG
B2: the % peak area of the bisecting (NGA2F) glycoform by CE amounted to 63.6% in assay [10] and 58.4% in assay [11].

B3: ST3Gal III (α2,3-sialyltransferase, EC 2.4.99.6) (enzyme)
chain: KLHLLQWEDSNSLILSLDSAGQTLGTEYDRLGFLLKLDSKLPAELATKYANFSEGACKPGYASAMMTAIFPRFSKPAPMFLDDSFRKWARIREFVPPFGIKGQDNLIKAILSVTKEYRLTPALDSLHCRRCIIVGNGGVLANKSLGSRIDDYDIVIRLNSAPVKGFEKDVGSKTTLRITYPEGAMQRPEQYERDSLFVLAGFKWQDFKWLKYIVYKERVSASDGFWKSVATRVPKEPPEIRILNPYFIQEAAFTLIGLPFNNGLMGRGNIPTLGSVAVTMALDGCDEVAVAGFGYDMNTPNAPLHYYETVRMAAIKESWTHNIQREKEFLRKLVKARVITDLSSGI
As to B3, the % Rxn (completion of sialylation by 14C-NeuAc incorporated, against terminal Gal content) was found to be 100% in assay [12], 117% in [13] and 116% in assay [14]. Besides, the incorporation of radiolabelled sialic acid in assay [8] was 10.9 moles/mole. In assay [15], this molecule displayed an addition of sialic acid; MALDI-TOF of 90%. In addition, the relative amount of the S2G2 glycoform by HPLC (peak at 49.4 min) in assay [16] came out at 58.9%; in assay [17], 61.9%.

B4: GnT-II (β1,2-mannosyl-UDP-N-acetylglucosaminosyltransferase II) (enzyme)
chain: RQRKNEALAPPLLDAEPARGAGGRGGDHPSVAVGIRRVSNVSAASLVPAVPQPEADNLTLRYRSLVYQLNFDQTLRNVDKAGTWAPRELVLVVQVHNRPEYLRLLLDSLRKAQGIDNVLVIFSHDFWSTEINQLIAGVNFCPVLQVFFPFSIQLYPNEFPGSDPRDCPRDLPKNAALKLGCINAEYPDSFGHYREAKFSQTKHHWWWKLHFVWERVKILRDYAGLILFLEEDHYLAPDFYHVFKKMWKLKQQECPECDVLSLGTYSASRSFYGMADKVDVKTWKSTEHNMGLALTRNAYQKLIECTDTFCTYDDYNWDWTLQYLTVSCLPKFWKVLVPQIPRIFHAGDCGMHHKKTCRPSTQSAQIESLLNNNKQYMFPETLTISEKFTVVAISPPRKNGGWGDIRDHELCKSYRRLQ
As for B4, the completion of the bi-antennary GlcNAc glycan (HPLC, MALDI) in assay [18] was above 99%. Further, the % peak area of the bisecting (NGA2F) glycoform by CE in assay [10] is 63.6%; in [11], 58.4%.

For the origin of these results see patent publication US20100261872A1, “Factor VIII: remodeling and glycoconjugation of factor VIII” (Neose Technologies, Inc., published 2010).
